Laboratory results as given in article PMC7528653 (Nucleic Acids Research, 2020).
Blank lines part the entries; values can stand above or below the binder they belong to.

Tests used:
[1] = biological target: T1, MSL1 (untagged, subunit of the DCCcore) (Drosophila melanogaster, UniProt P50535 1-1039); assay: co-IP
T1 sequence: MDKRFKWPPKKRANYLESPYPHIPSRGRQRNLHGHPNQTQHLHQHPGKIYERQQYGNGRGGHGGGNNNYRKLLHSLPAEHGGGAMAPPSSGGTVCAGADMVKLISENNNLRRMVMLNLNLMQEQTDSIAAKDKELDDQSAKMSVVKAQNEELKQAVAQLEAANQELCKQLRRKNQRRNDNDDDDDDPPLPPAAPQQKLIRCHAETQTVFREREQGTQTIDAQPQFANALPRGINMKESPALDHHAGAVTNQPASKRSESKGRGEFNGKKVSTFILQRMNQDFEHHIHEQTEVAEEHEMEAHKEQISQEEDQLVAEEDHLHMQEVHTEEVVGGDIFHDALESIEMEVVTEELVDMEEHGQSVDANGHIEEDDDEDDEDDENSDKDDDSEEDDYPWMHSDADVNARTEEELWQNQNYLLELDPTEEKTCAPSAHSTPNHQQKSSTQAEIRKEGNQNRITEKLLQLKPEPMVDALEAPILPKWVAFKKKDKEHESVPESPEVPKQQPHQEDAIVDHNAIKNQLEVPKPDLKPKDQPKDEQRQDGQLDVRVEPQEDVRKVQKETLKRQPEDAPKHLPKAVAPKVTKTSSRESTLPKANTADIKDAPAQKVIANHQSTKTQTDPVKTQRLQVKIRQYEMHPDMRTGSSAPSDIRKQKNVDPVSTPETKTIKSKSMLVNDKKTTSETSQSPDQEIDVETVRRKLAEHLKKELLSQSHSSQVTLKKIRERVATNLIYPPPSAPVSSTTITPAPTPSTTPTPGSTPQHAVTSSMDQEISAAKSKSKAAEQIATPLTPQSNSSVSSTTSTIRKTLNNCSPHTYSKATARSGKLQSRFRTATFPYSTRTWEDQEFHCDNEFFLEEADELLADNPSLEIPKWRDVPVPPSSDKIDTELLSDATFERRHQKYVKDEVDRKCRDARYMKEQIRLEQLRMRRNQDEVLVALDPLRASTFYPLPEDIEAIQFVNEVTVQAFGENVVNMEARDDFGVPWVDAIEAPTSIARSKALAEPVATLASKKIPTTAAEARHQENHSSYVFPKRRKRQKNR

[2] = biological target: MLE-FLAG (maleless DExH helicase, wild-type) (Drosophila melanogaster, UniProt P24785 1-1293); assay: co-IP

- binding result [1]: binds
B1: MSL3 with an N-terminal hexahistidine tag (natural protein)
chain: MTELRDETPLFHKGEIVLCYEPDKSKARVLYTSKVLNVFERRNEHGLRFYEYKIHFQGWRPSYDRCVRATVLLKDTEENRQLQRELAEAAKLQIRGDYSYKGTPDKPSAKKKRGGKAAHVEEPIVVPMDTGHLEAEHEMAPTPRAAGNRTRDNSGGKRKEKPPSGDGRLKGNRGRQTETFYNNAINDVSVYNHVPQEDRIMMRVSERLRELIEYDRNMIKVLGKQHALPARVPIVTIMENFVKQQAVELAISIKQDSSRARNTQSRNARMEREYDRVMSTVCMLKEVVDGLRIYFEFHVDDHLLYTEEKEYVHNYLTDDNMRNCSLILNKSYEYINPSGDTELIGLDGTPVVEGSGDTNGQIGVINIGGPEYEKQLQKCLLYIVTASGKNTAQAYERTSPYTAAYKLPVEMRGFLNETFKWRLLSAESPPEKSMVFGAPHLVRLMIKMPMFLNASPISNKKLEDLLPHLDAFINYLENHREWFDRENFVNSTALPQEDLQRELLDSLDGIAA

- binding result [2]: binds
B2: DCC DNA-binding module (MSL2-FLAG and MSL1 Δ865-1039) (complex)
chain 1: MAQTAYLKVTRIAMRSASNLSKRRVEELNSGLGELRQLLSCVVCCQLLVDPYSPKGKRCQHNVCRLCLRGKKHLFPSCTQCEGCSDFKTYEENRMMAAQLLCYKTLCVHLLHSALFGELAGMRPQVARELVPRIKLPPKTTQEFIREGSNISDTFDIFLPQPDLPFLKDMPTSLPAETPPTSAVTTPELPYDHHLNISDIEAEAAATAEQGHFSPLPLLPTGSRMGMLSHAGQIVIATESSESGFMDQAWTDQVDLSGTVSVSKYTNSGNNFAVSYVMPTSATTKFDPQELQIGQVVQMADSTQLAVLAAVEETVETSTQLTVLSTTVEETVETSTQLEVLTSAEEPNEISDQLANLQVEESDEALVEETVEEAEGTSIPSEVVAEHMEEDQHLDVHTSQSPTQTEMEEAVEEHVATKTQLGHVQTELQDAESLQKDFEDAKAAAEEAKEKEKDLHAISAELQKEDSDEPTLKRKRTRTLKASQAAKIEPVPSEVKTKVQSGKGALRRIRGKDKEEKVKPPKPKCRCGISGSSNTLTTCRNSRCPCYKSYNSCAGCHCVCCKNPHKEDYVESDEDDDLEDFEMPKDVPEPMTQSEEPVVAEPRQEENSMAPPDSSAPISLVPLNNLQQSQHPLVLVQNEKGEYQGFNIFQGSKPLDPVTVGFTIRVQLQHTDGFGSLPQYAYIMPTIDPPNPPAPSLSPPPPPAPDREVIEPPAKKFRTSRTRRGRANFSALDTVDELVSGGSRSNSAAGDRSSATDNAHSLFEEIMSGSDDL
chain 2: MDKRFKWPPKKRANYLESPYPHIPSRGRQRNLHGHPNQTQHLHQHPGKIYERQQYGNGRGGHGGGNNNYRKLLHSLPAEHGGGAMAPPSSGGTVCAGADMVKLISENNNLRRMVMLNLNLMQEQTDSIAAKDKELDDQSAKMSVVKAQNEELKQAVAQLEAANQELCKQLRRKNQRRNDNDDDDDDPPLPPAAPQQKLIRCHAETQTVFREREQGTQTIDAQPQFANALPRGINMKESPALDHHAGAVTNQPASKRSESKGRGEFNGKKVSTFILQRMNQDFEHHIHEQTEVAEEHEMEAHKEQISQEEDQLVAEEDHLHMQEVHTEEVVGGDIFHDALESIEMEVVTEELVDMEEHGQSVDANGHIEEDDDEDDEDDENSDKDDDSEEDDYPWMHSDADVNARTEEELWQNQNYLLELDPTEEKTCAPSAHSTPNHQQKSSTQAEIRKEGNQNRITEKLLQLKPEPMVDALEAPILPKWVAFKKKDKEHESVPESPEVPKQQPHQEDAIVDHNAIKNQLEVPKPDLKPKDQPKDEQRQDGQLDVRVEPQEDVRKVQKETLKRQPEDAPKHLPKAVAPKVTKTSSRESTLPKANTADIKDAPAQKVIANHQSTKTQTDPVKTQRLQVKIRQYEMHPDMRTGSSAPSDIRKQKNVDPVSTPETKTIKSKSMLVNDKKTTSETSQSPDQEIDVETVRRKLAEHLKKELLSQSHSSQVTLKKIRERVATNLIYPPPSAPVSSTTITPAPTPSTTPTPGSTPQHAVTSSMDQEISAAKSKSKAAEQIATPLTPQSNSSVSSTTSTIRKTLNNCSPHTYSKATARSGKLQSRFRTATFPYSTRTWEDQEFHCDNEFFLEEADELLADNP
